Laboratory results reported in US20260242735A1.

Assays:
human CD33 A108S (human) = human CD33 A108S (human) (UniProt P20138); assay: alanine scan, flow cytometry, HEK293-T
human CD33 H193A (human) = human CD33 H193A (human) (UniProt P20138); assay: alanine scan, flow cytometry, HEK293-T
human CD33 S194A (human) = human CD33 S194A (human) (UniProt P20138); assay: alanine scan, flow cytometry, HEK293-T
human CD33 S68A (human) = human CD33 S68A (human) (UniProt P20138); assay: alanine scan, flow cytometry, HEK293-T
human CD33 I66A (human) = human CD33 I66A (human) (UniProt P20138); assay: alanine scan, flow cytometry, HEK293-T
human CD33 W167A (human) = human CD33 W167A (human) (UniProt P20138); assay: alanine scan, flow cytometry, HEK293-T
human CD33 S124A (human) = human CD33 S124A (human) (UniProt P20138); assay: alanine scan, flow cytometry, HEK293-T
human CD33 G58A (human) = human CD33 G58A (human) (UniProt P20138); assay: alanine scan, flow cytometry, HEK293-T
human CD33 P174A (human) = human CD33 P174A (human) (UniProt P20138); assay: alanine scan, flow cytometry, HEK293-T
human CD33 R98A (human) = human CD33 R98A (human) (UniProt P20138); assay: alanine scan, flow cytometry, HEK293-T
human CD33 T86A (human) = human CD33 T86A (human) (UniProt P20138); assay: alanine scan, flow cytometry, HEK293-T
human CD33 K77A (human) = human CD33 K77A (human) (UniProt P20138); assay: alanine scan, flow cytometry, HEK293-T
human CD33 Y127A (human) = human CD33 Y127A (human) (UniProt P20138); assay: alanine scan, flow cytometry, HEK293-T
human CD33 I47A (human) = human CD33 I47A (human) (UniProt P20138); assay: alanine scan, flow cytometry, HEK293-T
human CD33 R144A (human) = human CD33 R144A (human) (UniProt P20138); assay: alanine scan, flow cytometry, HEK293-T
human CD33 D107A (human) = human CD33 D107A (human) (UniProt P20138); assay: alanine scan, flow cytometry, HEK293-T
human CD33 I242A (human) = human CD33 I242A (human) (UniProt P20138); assay: alanine scan, flow cytometry
human CD33 E224A (human) = human CD33 E224A (human) (UniProt P20138); assay: alanine scan, flow cytometry
human CD33 G263A (human) = human CD33 G263A (human) (UniProt P20138); assay: alanine scan, flow cytometry
human CD33 T268A (human) = human CD33 T268A (human) (UniProt P20138); assay: alanine scan, flow cytometry
human CD33 V231A (human) = human CD33 V231A (human) (UniProt P20138); assay: alanine scan, flow cytometry
human CD33 V234A (human) = human CD33 V234A (human) (UniProt P20138); assay: alanine scan, flow cytometry
human CD33 A261S (human) = human CD33 A261S (human) (UniProt P20138); assay: alanine scan, flow cytometry
human CD33 N230A (human) = human CD33 N230A (human) (UniProt P20138); assay: alanine scan, flow cytometry
human CD33 L210A (human) = human CD33 L210A (human) (UniProt P20138); assay: alanine scan, flow cytometry
human CD33 T222A (human) = human CD33 T222A (human) (UniProt P20138); assay: alanine scan, flow cytometry
human CD33 G247A (human) = human CD33 G247A (human) (UniProt P20138); assay: alanine scan, flow cytometry
human CD33 A269S (human) = human CD33 A269S (human) (UniProt P20138); assay: alanine scan, flow cytometry
human CD33 P238A (human) = human CD33 P238A (human) (UniProt P20138); assay: alanine scan, flow cytometry
human CD33 Q251A (human) = human CD33 Q251A (human) (UniProt P20138); assay: alanine scan, flow cytometry
human CD33 F243A (human) = human CD33 F243A (human) (UniProt P20138); assay: alanine scan, flow cytometry
human CD33 K250A (human) = human CD33 K250A (human) (UniProt P20138); assay: alanine scan, flow cytometry
human CD33 S248A (human) = human CD33 S248A (human) (UniProt P20138); assay: alanine scan, flow cytometry
human CD33 G266A (human) = human CD33 G266A (human) (UniProt P20138); assay: alanine scan, flow cytometry
human CD33 D205A (human) = human CD33 D205A (human) (UniProt P20138); assay: alanine scan, flow cytometry
human CD33 V196A (human) = human CD33 V196A (human) (UniProt P20138); assay: alanine scan, flow cytometry
human CD33 A217S (human) = human CD33 A217S (human) (UniProt P20138); assay: alanine scan, flow cytometry
human CD33 T232A (human) = human CD33 T232A (human) (UniProt P20138); assay: alanine scan, flow cytometry
human CD33 T200A (human) = human CD33 T200A (human) (UniProt P20138); assay: alanine scan, flow cytometry
human CD33 K215A (human) = human CD33 K215A (human) (UniProt P20138); assay: alanine scan, flow cytometry
human CD33 H206A (human) = human CD33 H206A (human) (UniProt P20138); assay: alanine scan, flow cytometry
human CD33 G256A (human) = human CD33 G256A (human) (UniProt P20138); assay: alanine scan, flow cytometry
human CD33 R225A (human) = human CD33 R225A (human) (UniProt P20138); assay: alanine scan, flow cytometry
human CD33 T211A (human) = human CD33 T211A (human) (UniProt P20138); assay: alanine scan, flow cytometry
human CD33 D246A (human) = human CD33 D246A (human) (UniProt P20138); assay: alanine scan, flow cytometry
human CD33 T240A (human) = human CD33 T240A (human) (UniProt P20138); assay: alanine scan, flow cytometry
human CD33 P244A (human) = human CD33 P244A (human) (UniProt P20138); assay: alanine scan, flow cytometry
human CD33 L229A (human) = human CD33 L229A (human) (UniProt P20138); assay: alanine scan, flow cytometry
human CD33 P203A (human) = human CD33 P203A (human) (UniProt P20138); assay: alanine scan, flow cytometry
human CD33 A265S (human) = human CD33 A265S (human) (UniProt P20138); assay: alanine scan, flow cytometry

Sequence of human CD33 F243A (human) (P20138 18-364 F243A limits assumed): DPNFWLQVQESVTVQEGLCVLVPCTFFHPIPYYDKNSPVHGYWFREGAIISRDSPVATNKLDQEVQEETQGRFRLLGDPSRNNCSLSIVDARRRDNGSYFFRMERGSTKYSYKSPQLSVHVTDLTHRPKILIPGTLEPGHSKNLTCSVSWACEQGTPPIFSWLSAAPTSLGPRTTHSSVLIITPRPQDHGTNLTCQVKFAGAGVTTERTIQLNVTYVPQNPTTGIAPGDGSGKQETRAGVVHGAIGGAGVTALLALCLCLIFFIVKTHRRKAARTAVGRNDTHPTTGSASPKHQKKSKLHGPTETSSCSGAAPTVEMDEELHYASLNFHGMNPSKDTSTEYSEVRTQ
Sequence of human CD33 V231A (human) (P20138 18-364 V231A limits assumed): as the sequence (P20138 18-364 F243A limits assumed) above, with V214A, A226F counted along it
Sequence of human CD33 T222A (human) (P20138 18-364 T222A limits assumed): as the sequence (P20138 18-364 F243A limits assumed) above, with T205A, A226F counted along it
Sequence of human CD33 K250A (human) (P20138 18-364 K250A limits assumed): as the sequence (P20138 18-364 F243A limits assumed) above, with A226F, K233A counted along it
Sequence of human CD33 A108S (human) (P20138 18-364 A108S limits assumed): as the sequence (P20138 18-364 F243A limits assumed) above, with A91S, A226F counted along it
Sequence of human CD33 I47A (human) (P20138 18-364 I47A limits assumed): as the sequence (P20138 18-364 F243A limits assumed) above, with I30A, A226F counted along it
Sequence of human CD33 P244A (human) (P20138 18-364 P244A limits assumed): as the sequence (P20138 18-364 F243A limits assumed) above, with A226F, P227A counted along it
Sequence of human CD33 I242A (human) (P20138 18-364 I242A limits assumed): as the sequence (P20138 18-364 F243A limits assumed) above, with I225A, A226F counted along it
Sequence of human CD33 R144A (human) (P20138 18-364 R144A limits assumed): as the sequence (P20138 18-364 F243A limits assumed) above, with R127A, A226F counted along it
Sequence of human CD33 W167A (human) (P20138 18-364 W167A limits assumed): as the sequence (P20138 18-364 F243A limits assumed) above, with W150A, A226F counted along it
Sequence of human CD33 P174A (human) (P20138 18-364 P174A limits assumed): as the sequence (P20138 18-364 F243A limits assumed) above, with P157A, A226F counted along it
Sequence of human CD33 S248A (human) (P20138 18-364 S248A limits assumed): as the sequence (P20138 18-364 F243A limits assumed) above, with A226F, S231A counted along it
Sequence of human CD33 K77A (human) (P20138 18-364 K77A limits assumed): as the sequence (P20138 18-364 F243A limits assumed) above, with K60A, A226F counted along it
Sequence of human CD33 L210A (human) (P20138 18-364 L210A limits assumed): as the sequence (P20138 18-364 F243A limits assumed) above, with L193A, A226F counted along it

Substance: Refmab #7 (WM53) (antibody)
- Mean % WT Binding (human CD33 A108S (human)): 120 % WT binding
- Mean % WT Binding (human CD33 H193A (human)): 107 % WT binding
- Mean % WT Binding (human CD33 S194A (human)): 112 % WT binding
- Mean % WT Binding (human CD33 S68A (human)): 120 % WT binding
- Mean % WT Binding (human CD33 I66A (human)): 117 % WT binding
- Mean % WT Binding (human CD33 W167A (human)): 127 % WT binding
- Mean % WT Binding (human CD33 S124A (human)): 81.8 % WT binding
- Mean % WT Binding (human CD33 G58A (human)): 97.2 % WT binding
- Mean % WT Binding (human CD33 P174A (human)): 122 % WT binding
- Mean % WT Binding (human CD33 R98A (human)): 138 % WT binding
- Mean % WT Binding (human CD33 T86A (human)): 111 % WT binding
- Mean % WT Binding (human CD33 K77A (human)): 117 % WT binding
- Mean % WT Binding (human CD33 Y127A (human)): 175 % WT binding
- Mean % WT Binding (human CD33 I47A (human)): 50.2 % WT binding
- Mean % WT Binding (human CD33 R144A (human)): 120 % WT binding
- Mean % WT Binding (human CD33 D107A (human)): 113 % WT binding
- Mean % WT Binding (human CD33 I242A (human)): 105 % WT binding
- Mean % WT Binding (human CD33 E224A (human)): 126 % WT binding
- Mean % WT Binding (human CD33 G263A (human)): 104 % WT binding
- Mean % WT Binding (human CD33 T268A (human)): 148 % WT binding
- Mean % WT Binding (human CD33 V231A (human)): 112 % WT binding
- Mean % WT Binding (human CD33 V234A (human)): 98.6 % WT binding
- Mean % WT Binding (human CD33 A261S (human)): 102 % WT binding
- Mean % WT Binding (human CD33 N230A (human)): 100 % WT binding
- Mean % WT Binding (human CD33 L210A (human)): 98.6 % WT binding
- Mean % WT Binding (human CD33 T222A (human)): 110 % WT binding
- Mean % WT Binding (human CD33 G247A (human)): 123 % WT binding
- Mean % WT Binding (human CD33 A269S (human)): 118 % WT binding
- Mean % WT Binding (human CD33 P238A (human)): 129 % WT binding
- Mean % WT Binding (human CD33 Q251A (human)): 108 % WT binding
- Mean % WT Binding (human CD33 F243A (human)): 91.8 % WT binding
- Mean % WT Binding (human CD33 K250A (human)): 118 % WT binding
- Mean % WT Binding (human CD33 S248A (human)): 113 % WT binding
- Mean % WT Binding (human CD33 G266A (human)): 110 % WT binding
- Mean % WT Binding (human CD33 D205A (human)): 0.8 % WT binding
- Mean % WT Binding (human CD33 V196A (human)): 117 % WT binding
- Mean % WT Binding (human CD33 A217S (human)): 114 % WT binding
- Mean % WT Binding (human CD33 T232A (human)): 95.3 % WT binding
- Mean % WT Binding (human CD33 T200A (human)): 97.6 % WT binding
- Mean % WT Binding (human CD33 K215A (human)): 145 % WT binding
- Mean % WT Binding (human CD33 H206A (human)): 108 % WT binding
- Mean % WT Binding (human CD33 G256A (human)): 106 % WT binding
- Mean % WT Binding (human CD33 R225A (human)): 99.8 % WT binding
- Mean % WT Binding (human CD33 T211A (human)): 98.1 % WT binding
- Mean % WT Binding (human CD33 D246A (human)): 99.5 % WT binding
- Mean % WT Binding (human CD33 T240A (human)): 121 % WT binding
- Mean % WT Binding (human CD33 P244A (human)): 99 % WT binding
- Mean % WT Binding (human CD33 L229A (human)): 114 % WT binding
- Mean % WT Binding (human CD33 P203A (human)): 113 % WT binding
- Mean % WT Binding (human CD33 A265S (human)): 110 % WT binding
